Experimental data from US11999794B2, “Human mesothelin chimeric antigen receptors and uses thereof” (Novartis AG, priority 2013, dated 2024).

Columns and labels:
[1] = system: Ovcar8, SW1990 and Panc0203; assay: IFNγ production of CART-MSLN (CBA-Flex), endogenous MSLN; format: cell-based, human; conditions: for IFNγ levels compared with the other CARTs: cancer cells endogenously expressing MSLN
Procedure: Plots from 20 hour flow-based killing assays using titrating Effector to Target (E:T) ratios with effector CART-MSLN cells targeting CSFE labeled K562 (FIG. 3A. non-expressing MSLN controls) and K562-Meso (FIG. 3B, K562 cells transduced to express MSLN). […] For measuring cytokine production of human scFv bearing CART-MSLN, cells were thawed and allowed to recover overnight. In addition to the humanized CART-MSLN, the SS1 CART-MSLN (murine scFv) was used for comparative purposes. CD19-BBz CART was used as a non-targeting control for background CART cell effect. SS1 CART-MSLN was used in all assays to compare assay variation. The T cells were directed towards K562, a chronic myelogenous leukemia cell line (both MSLN+ and MSLN), the MLSN-expressing ovarian cancer cell line Ovcar8, and the pancreatic cancer lines SW1990 and Panc0203. When analyzing MSLN expression by flow cytometry, we detected 10-fold lower expression of MSLN on Ovcar8 compared to MSLN+K562 cells; SW1990 expressed 10-fold less than Ovcar8. […] In addition, PMA/Ionomycin was used to evaluate the potential of T cells to respond to the endogenous immunological signals. The assay tests only an effector:target ratio of 1:1. The assay is run for 24 hours after mixing of the cells, when the media is removed for cytokine analysis using the IFN-γ CBA-Flex kit for human cytokine detection.
Background levels of cytokine produced from CART-MSLN cells after exposure to the control K562 cells not expressing MSLN were analyzed. […] Differences were dealt with by normalizing the specific IFNγ release over the maximum release (PMA/Ionomycin).

[2] = system: Ovcar8; assay: Ovcar8 xenograft model (Example 8); format: in vivo, NSG mice; conditions: 2×10^6 CART cells i.v. at day 14
Procedure: Anti-tumor activity of CART-MSLN was assessed in vivo in an Ovcar8 xenograft model. 10×10^6 Ovcar8 cells were implanted subcutaneously on day 0 in NSG mice. At day 14, 2×10^6 CART cells (CARTs expressing M5, M11, M17, M21, SS1, and CD19, or untransduced cells; 10×10^6 total T cells) in a 100 μl dose was administered intravenously. Mice and tumors were monitored for about 40 days after tumor cell implantation.
A second in vivo xenograft experiment was performed to assess the anti-tumor activity of a second set of CART-MSLN cells. 10×10^6 OVCAR8-mcherry cells were injected into NSG mice. Once tumors were 150-250 mm^2, mice were randomized into treatment groups. CARTs expressing M12, M14, M16, M23, ss1, CD19, or untreated cells were injected at a dose of 10×10^6 T cells in 100 μl. About 40% of T cells were expressing CAR, and therefore at the administered dosage, about 4×10^6 CART cells were delivered to each animal.

[3] = system: Ovcar8; assay: OVCAR8 subcutaneous xenograft, single and double dose (Example 17); format: in vivo, NSG mice; conditions: for tumor growth / anti-tumor activity, single dose: 4×10^6 CAR+ T cells on day 14; for tumor growth / anti-tumor activity, double dose: 4×10^6 CAR+ T cells on days 14 and 19; for delta T/C value: day 52, versus Isotype group, single dose; for regression value / Regression (%) / Delta T/C (%): day 52; for Regression (%): double dose (second identical dose 5 days later); for Delta T/C (%): single dose of 4×10^6 CAR T cells i.v. on day 14, versus the Isotype group
Procedure: Cell line: OVCAR8 is a human ovarian cancer cell line that was derived from a patient with ovarian adenocarcinoma, and has been transduced to express mCherry. Cells were grown in RMPI medium containing 10% fetal bovine serum. This cell line grows adherent in tissue culture flasks. This cell line forms tumors in mice when implanted subcutaneously in the flank and mixed with matrigel. The addition of matrigel to the cells during the implantation allow for a matrix to develop in the flank of the mouse that provides a structure for the tumor cells to start growing on. Over 10-12 days, the matrigel plug degrades and the solid tumor that remains is made up of tumor cells and surrounding stromal cells. The OVCAR8 cells have been modified to express mCherry, so that that tumor cell growth can also be monitored by imaging the mice.
Mice: 6 week old NSG (NOD.Cg-Prkdc^scidIl2rg^tm1Wjl/SzJ) mice were received from the Jackson Laboratory (stock number 005557). Animals were allowed to acclimate in the Novartis NIBRI animal facility for at least 3 days prior to experimentation. Animals were handled in accordance with Novartis ACUC regulations and guidelines. Electronic transponders for animal identification were implanted on the left flank one day prior to tumor implantation. Mice were shaved on the right flank prior to tumor implantation.
Tumor implantation: OVCAR8 cells in log phase were harvested after tyrpsinization with 0.25% trypsin-EDTA. The cells were washed in 50 ml falcon tubes at 1200 rpm for 5 minutes, once in growth media and then two times in cold sterile PBS. The cells were resuspended in PBS at a concentration of 100×10^6 per ml and kept on ice. The PBS solution containing the cells was then mixed 1:1 with matrigel, resulting in a final concentration of 50×10^6 cells per ml of PBS-matrigel. The cells were placed on ice and immediately implanted in mice. Tumors were implanted subcutaneously in 200 ul on the right flank.
The OVCAR8 model endogenously expresses mesothelin and thus, can be used to test the in vivo efficacy of mesothelin directed CAR T cells. This model grows well when implanted subcutaneously in the flank of mice and can be calipered for tumor volume measurements. Upon implantation of 10×10^6 tumor cells in a 50:50 mix of PBS and matrigel, the tumors establish and can be accurately measured in one week. Within 13-15 days, the mean tumor volume is 100-200 mm^3, with tumors reaching an endpoint volume (1000-1200 mm^3) by 60-65 days. Anti-tumor activities of therapeutic agents are often tested once tumors are fully engrafted and matrigel resorbed. Thus, there is a large window with this model during which the anti-tumor activity of the CAR T cells can be observed.
CAR T cell dosing: Mice were dosed with 4×10^6 CART cells (13.3×10^6 total T cells) 14 days after tumor implantation. Cells were partially thawed in a 37 degree Celsius water bath and then completely thawed by the addition of 1 ml of cold sterile PBS to the tube containing the cells. The thawed cells were transferred to a 15 ml falcon tube and adjusted to a final volume of 10 mls with PBS. The cells were washed twice at 1000 rpm for 10 minutes each time and then counted on a hemocytometer. T cells were then resuspended at a concentration of 133×10^6 cells per ml of cold PBS and kept on ice until the mice were dosed. The mice were injected intravenously via the tail vein with 100 ul of the T cells for a dose of 4×10^6 CAR T cells (13.3×10^6 total T cells) per mouse. Seven mice per group were either treated with 100 ul of PBS alone (PBS) or T cells transduced with an isotype CAR (Isotype). 14 mice per group were treated with either the SS1 mesothelin CAR T cells, M5 mesothelin CAR T cells, or M11 mesothelin CART cells. Five days later the SS1, M5, and M11 groups were split in half and seven mice in each group were treated with an identical second dose of the CAR T cells. […]

Row | Molecule | IFNγ response to cancer cells endogenously expressing MSLN ([1]; E:T 1:1, 24 hours) | IFNγ levels compared with the other CARTs [1] | anti-tumor activity, first xenograft experiment [2] | tumor growth / anti-tumor activity, single dose [3] | tumor growth / anti-tumor activity, double dose [3] | delta T/C value [3] [%] | regression value ([3]; double dose) [%] | mice with complete regression ([3]; double dose) | Regression (%) [3] [%] | Delta T/C (%) [3] [%]
1 | M5: human anti-mesothelin scFv SEQ ID NO: 43; full CAR SEQ ID NO: 67 (protein) scFv: QVQLVQSGAEVEKPGASVKVSCKASGYTFTDYYMHWVRQAPGQGLEWMGWINPNSGGTNYAQKFQGRVTMTRDTSISTAYMELSRLRSDDTAVYYCASGWDFDYWGQGTLVTVSSGGGGSGGGGSGGGGSGGGGSDIVMTQSPSSLSASVGDRVTITCRASQSIRYYLSWYQQKPGKAPKLLIYTASILQNGVPSRFSGSGSGTDFTLTISSLQPEDFATYYCLQTYTTPDFGPGTKVEIK | responded | superior IFNγ levels | strong anti-tumor activity | clear anti-tumor activity | regression as opposed to tumor growth inhibition | 30.28 | −63.90 | four out of seven mice | −63.90 | 30.28
2 | M11: human anti-mesothelin scFv SEQ ID NO: 49; full CAR SEQ ID NO: 73 (protein) scFv: QVQLQQSGAEVKKPGASVKVSCKASGYTFTGYYMHWVRQAPGQGLEWMGWINPNSGGTNYAQNFQGRVTMTRDTSISTAYMELRRLRSDDTAVYYCASGWDFDYWGQGTLVTVSSGGGGSGGGGSGGGGSGGGGSDIRMTQSPSSLSASVGDRVTITCRASQSIRYYLSWYQQKPGKAPKLLIYTASILQNGVPSRFSGSGSGTDFTLTISSLQPEDFATYYCLQTYTTPDFGPGTKVEIK |  | superior IFNγ levels | strong anti-tumor activity | clear anti-tumor activity | regression as opposed to tumor growth inhibition | 52.91 | −15.80 |  | −15.80 | 52.91
